Source: the supplement of paper PMC7125110
± gives the standard error. Variants at the floor of the assay were thinned out.

B1: glmS ribozyme (parent)
chain: AUAAAAGCGCCAGAACUACAGAAAUGUAGUUGACGAGGAGGAGGUUUAUCGAAUUUUCGGCGGAUGCCUCCAAA

Columns and labels:
Conditions in all cases: with glucosamine-6-phosphate
glucosamine-6-phosphate [1] = variants of: B1; test: self-cleavage kobs at 40 uM GlcN6P; higher = faster cleavage; RNA array
Summary of the method: (§1)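 Weighted Michaelis–Menten fits across concentrations supplied kcat and KM, based on kobs from one- or two-exponential decay fits to normalised per-tile medians. The data came from barcoded ribozyme variants transcribed in situ by E. coli RNA polymerase on sequenced MiSeq chips and tracked at 37 °C by a hybridised Cy3 probe. Glucosamine-6-phosphate (40 μM to 10 mM) in HEPES/KCl/Mg(OAc)2 buffer was flowed in.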

glucosamine-6-phosphate [2] = variants of: B1; test: self-cleavage kobs at 10000 uM GlcN6P; higher = faster cleavage; RNA array
Summary of the method: as §1

glucosamine-6-phosphate [3] = variants of: B1; test: self-cleavage kobs at 160 uM GlcN6P; higher = faster cleavage; RNA array
Summary of the method: as §1

glucosamine-6-phosphate [4] = variants of: B1; test: self-cleavage kobs at 2500 uM GlcN6P; higher = faster cleavage; RNA array
Summary of the method: as §1

glucosamine-6-phosphate [5] = variants of: B1; test: self-cleavage kobs at 640 uM GlcN6P; higher = faster cleavage; RNA array
Summary of the method: as §1

Variant | self-cleavage kobs at 40 uM GlcN6P (glucosamine-6-phosphate [1]) [s⁻¹] | self-cleavage kobs at 10000 uM GlcN6P (glucosamine-6-phosphate [2]) [s⁻¹] | self-cleavage kobs at 160 uM GlcN6P (glucosamine-6-phosphate [3]) [s⁻¹] | self-cleavage kobs at 2500 uM GlcN6P (glucosamine-6-phosphate [4]) [s⁻¹] | self-cleavage kobs at 640 uM GlcN6P (glucosamine-6-phosphate [5]) [s⁻¹]
C10G U30C A33C U55A | < 1e-05 | < 1e-05 | – | – | –
G13U U56A G59U | < 1e-05 | – | – | – | –
C10U A15G G40U | < 1e-05 | < 1e-05 | – | – | –
G35U G38A | < 1e-05 | < 1e-05 | < 1e-05 | – | –
C8G C61U G66A C70U | < 1e-05 | – | – | – | –
A6C G32C | < 1e-05 | < 1e-05 | < 1e-05 | < 1e-05 | –
G7U C10A A15U | < 1e-05 | – | – | < 1e-05 | < 1e-05
U30C U47C | < 1e-05 | – | < 1e-05 | – | –
A33C G40C G44U C50U | < 1e-05 | – | – | < 1e-05 | –
C10A C11U A33C U49G C67G | < 1e-05 | – | – | < 1e-05 | –
G59U C61A | < 1e-05 | < 1e-05 | < 1e-05 | – | < 1e-05
U46C G62U | < 1e-05 | < 1e-05 | < 1e-05 | – | –
G7U G9A U57G C67A | < 1e-05 | – | – | – | –
A36C U65A | < 1e-05 | – | – | < 1e-05 | < 1e-05
U30C A48U | < 1e-05 | < 1e-05 | < 1e-05 | – | < 1e-05
G29U A53C C68U | < 1e-05 | 3.37e-05 ± 1.6e-05 | – | – | –
A14G A15G | 0.00218 ± 0.00029 | 0.109 ± 0.035 | 0.0049 ± 0.0015 | 0.0102 ± 0.0027 | 0.0134 ± 0.0029
A39C G41A | < 1e-05 | < 1e-05 | < 1e-05 | – | < 1e-05
G13A A15U A33U G37U U46C U49A | < 1e-05 | – | – | < 1e-05 | –
C10G U31C | < 1e-05 | < 1e-05 | < 1e-05 | – | –
U30G U56A G66A | 5.14e-05 ± 1.7e-05 | 0.00252 ± 0.00061 | – | – | –
C10G G13U A14U | < 1e-05 | – | – | – | –
C16U G41A U56C | < 1e-05 | 3.75e-05 ± 1.4e-05 | – | – | –
C8G G37U G41C U56A | < 1e-05 | – | – | < 1e-05 | –

Variant | self-cleavage kobs at 40 uM GlcN6P (glucosamine-6-phosphate [1]) [s⁻¹] | self-cleavage kobs at 10000 uM GlcN6P (glucosamine-6-phosphate [2]) [s⁻¹] | self-cleavage kobs at 160 uM GlcN6P (glucosamine-6-phosphate [3]) [s⁻¹] | self-cleavage kobs at 2500 uM GlcN6P (glucosamine-6-phosphate [4]) [s⁻¹] | self-cleavage kobs at 640 uM GlcN6P (glucosamine-6-phosphate [5]) [s⁻¹]
G35C C67A | < 1e-05 | < 1e-05 | < 1e-05 | – | < 1e-05
C8U A33G | < 1e-05 | < 1e-05 | < 1e-05 | – | < 1e-05
G41U A64U | < 1e-05 | – | – | – | < 1e-05
G9A A14U C61A | < 1e-05 | – | – | < 1e-05 | –
A15U C71U | 0.000165 ± 1.3e-05 | 0.00793 ± 0.0013 | 0.00037 ± 4.8e-05 | 0.00528 ± 0.00075 | 0.00103 ± 9e-05
G13A G41C | < 1e-05 | – | – | – | < 1e-05
G29U G35A A48G A53C | < 1e-05 | – | – | – | < 1e-05
C11G A36C U55C | < 1e-05 | – | – | – | < 1e-05
G38A C58U G59U | < 1e-05 | < 1e-05 | – | – | –
A12U A64G | 0.000953 ± 0.00018 | 0.052 ± 0.015 | 0.0025 ± 0.00063 | 0.0169 ± 0.0043 | 0.00536 ± 0.0011
G29U U56A | 4.68e-05 ± 1.4e-05 | 0.00285 ± 0.00045 | 9.32e-05 ± 2e-05 | – | 0.000211 ± 7e-05
G9A U31G | < 1e-05 | – | < 1e-05 | < 1e-05 | –
G29A U55C | 0.000113 ± 2.5e-05 | 0.00384 ± 0.00092 | 9.66e-05 ± 2.7e-05 | 0.00194 ± 0.00056 | 0.00146 ± 0.00032
G32A C67G C70U | < 1e-05 | – | – | – | –
C34U U56A | < 1e-05 | – | < 1e-05 | < 1e-05 | < 1e-05
C10A A15U | < 1e-05 | – | – | – | < 1e-05
G51C G60U | < 1e-05 | < 1e-05 | < 1e-05 | – | < 1e-05
A52C C68G | 4.36e-05 ± 1.5e-05 | 2.34e-05 ± 1.1e-05 | – | – | 0.000126 ± 3.5e-05
U47A A53G | 0.000816 ± 9.9e-05 | 0.04 ± 0.011 | 0.00166 ± 0.0003 | 0.0106 ± 0.0028 | 0.00725 ± 0.0013
C8A G29U C50U G51U C68G | 6.11e-05 ± 2.7e-05 | – | – | – | –
C10U U31C C34U | < 1e-05 | – | – | – | –
A1U U2G A3G C8G A12U G63C C68A | < 1e-05 | < 1e-05 | – | < 1e-05 | –
A14G A36U A48U | < 1e-05 | – | – | – | –
